Reference: patent US20260151494A1 (ARO BIOTHERAPEUTICS, published 2026)

Legend:
[1] = target: T1, apical domain of human CD71 (human, UniProt P02786 189-383, limits assumed); experiment: primary ELISA, RLU over HSA
T1 construct: domain: apical domain; Screen 4 panned on human apical domains, the ELISA text says only 'apical domain'

[2] = target: T2, human CD71 extracellular domain (human, UniProt P02786 89-760, biotinylated); experiment: primary ELISA, RLU over HSA
T2 construct: also called hCD71; CD71-ECD
T2 sequence (P02786 89-760): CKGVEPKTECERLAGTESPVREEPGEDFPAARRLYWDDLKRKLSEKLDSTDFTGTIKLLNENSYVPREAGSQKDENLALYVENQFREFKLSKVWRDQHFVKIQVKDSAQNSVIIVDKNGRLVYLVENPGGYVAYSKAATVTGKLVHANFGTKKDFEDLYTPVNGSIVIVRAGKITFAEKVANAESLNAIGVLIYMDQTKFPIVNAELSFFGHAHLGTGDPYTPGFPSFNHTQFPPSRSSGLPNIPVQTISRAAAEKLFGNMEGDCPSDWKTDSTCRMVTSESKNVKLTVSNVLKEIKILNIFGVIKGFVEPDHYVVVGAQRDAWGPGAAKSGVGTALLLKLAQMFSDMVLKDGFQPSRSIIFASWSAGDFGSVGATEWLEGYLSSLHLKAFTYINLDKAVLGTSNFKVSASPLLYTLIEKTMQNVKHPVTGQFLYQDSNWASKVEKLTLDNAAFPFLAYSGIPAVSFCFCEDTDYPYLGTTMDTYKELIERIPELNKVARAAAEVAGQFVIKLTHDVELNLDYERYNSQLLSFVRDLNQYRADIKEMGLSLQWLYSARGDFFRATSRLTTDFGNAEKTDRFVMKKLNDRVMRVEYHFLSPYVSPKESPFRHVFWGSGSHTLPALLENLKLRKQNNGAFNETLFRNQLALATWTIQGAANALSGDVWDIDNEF

[3] = target: T1, apical domain of human CD71; experiment: primary ELISA; note: test concentration or dose not given here
[4] = target: T2, human CD71 extracellular domain; experiment: primary ELISA; note: test concentration or dose not given here
[5] = target: T3, apical domain of cynomolgus CD71 (cynomolgus, UniProt A0A2K5X958 189-383); experiment: primary ELISA; note: test concentration or dose not given here
T3 construct: domain: apical domain; also called Cyno apical domain
T3 sequence (A0A2K5X958 entry or part of it): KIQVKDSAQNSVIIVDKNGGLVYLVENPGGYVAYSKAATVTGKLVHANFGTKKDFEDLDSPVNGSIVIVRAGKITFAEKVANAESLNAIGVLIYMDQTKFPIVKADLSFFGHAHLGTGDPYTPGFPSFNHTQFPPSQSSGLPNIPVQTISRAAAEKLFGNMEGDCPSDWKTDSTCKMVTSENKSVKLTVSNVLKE

[6] = target: T4, human CD71 extracellular domain (human, UniProt P02786 89-760); experiment: primary ELISA; note: test concentration or dose not given here
T4 construct: also called hCD71; human CD71-ECD
T4 sequence (P02786 89-760): as the sequence (P02786 89-760) above

[7] = target: T3, apical domain of cynomolgus CD71; experiment: primary ELISA, signal ratio to HSA
[8] = target: T4, human CD71 extracellular domain; experiment: primary ELISA, signal ratio to HSA

T1 sequence (P02786 189-383 limits assumed): as the sequence (A0A2K5X958 entry or part of it) above, with G20R, D59Y, S60T, K104N, D106E, Q137R, K176R, N182S, S184N counted along it

Binder | Apical domain:HSA [1] | hCD71:HSA [2] | RLU [3] [RLU] | RLU [4] [RLU] | RLU [5] [RLU] | RLU [6] [RLU] | Cyno apical domain:HSA [7] | hCD71:HSA [8]
CD71-binding FN3 domain of SEQ ID NO: 495 (designed binder) MLPAPKNLVVSRVTEDSARLSWTAPDAAFDSFFINYREDKWIGEAIVLTVPGSERSYDLTGLKPGTEYSVPIDGVKGGAASPPLSAIFTT | 504 | 142 | 4.03e+06 | 1.14e+06 | – | – | – | –
CD71-binding FN3 domain of SEQ ID NO: 509 (designed binder) MLPAPKNLVVSRVTEDSARLSWTAPDAAFDSFEIGYWENAYKGEAIVLTVPGSERSYDLTGLKPGTEYEVFIGGVKGGVWSVPLSAIFTT | 353 | 134 | 4.6e+06 | 1.74e+06 | – | – | – | –
CD71-binding FN3 domain of SEQ ID NO: 506 (designed binder) MLPAPKNLVVSRVTEDSARLSWTAPDAAFDSFEIGYWENAYKGEAIVLTVPGSERSYDLTGLKPGTEYVVFIGGVKGGVWSVPLSAISTT | 112 | 39 | 4.74e+06 | 1.64e+06 | – | – | – | –
CD71-binding FN3 domain of SEQ ID NO: 531 (designed binder) MLPAPKNLVVSRVTEDSARLSWTAPDAAFDSFEIGYFEYSYYGEAIVLTVPGSERSYDLTGLKPGTEYRVYIGGVKGGGWSRPLSAIFTT | 586 | 226 | 4.16e+06 | 1.6e+06 | – | – | – | –
CD71-binding FN3 domain of SEQ ID NO: 537 (designed binder) MLPAPKNLVVSRVTEDSARLSWTAPDAAFDSFEIGYFENLYLGEAIVLTVPGSERSYDLTGLKPGTEYWVQIGGVKGGNWSAPLSAIFTT | 50 | 23 | 5.14e+06 | 2.42e+06 | – | – | – | –
CD71-binding FN3 domain of SEQ ID NO: 503 (designed binder) MLPAPKNLVVSRVTEDSARLSWTAPDAAFDSFEISYFETSWHGEAIVLTVLGSERSYDLTGLKPGTEYRVYIGGVKGGSWSQPLSAIFTT | 145 | 150 | 2.26e+06 | 2.35e+06 | – | – | – | –
CD71-binding FN3 domain of SEQ ID NO: 536 (designed binder) MLPAPKNLVVSRVTEDSARLSWTAPDAAFDSFDIGYTETVSFGEAIVLTVPGSERSYDLTGLKPGTEYIVKILGVKGGFASFPLSAIFTT | 154 | 141 | 3.26e+06 | 2.99e+06 | – | – | – | –
CD71-binding FN3 domain of SEQ ID NO: 120 (designed binder) MSLPAPKNLVVSRVTEDSARLSWTAPDAAFDSFEIAYQELSLWGEAIVLTVPGSERSYDLTGLKPGTEYWVQIGGVKGGEWSAPLSAIFTT | – | – | – | – | 5.13e+06 | 4.26e+06 | 534 | 443
CD71-binding FN3 domain of SEQ ID NO: 122 (designed binder) MSLPAPKNLVVSRVTEDSARPSWTAPDAAFDSFEIGYFENLYLGEAIVLTVPGSERSYDLTGLKPGTEYYVHIGGVKGGIWSSPLSAYFTT | – | – | – | – | 4.2e+06 | 5.5e+06 | 80 | 105
CD71-binding FN3 domain of SEQ ID NO: 144 (designed binder) MSLPAPKNLVVSRVTEDSARLSWTAPDAAFDSFEIGYFENLYLGEAIVLTVPGSERSYDLTSLKPGTEYWVQIGGVKGGNWSAPLSATFTT | – | – | – | – | 5.3e+06 | 4.74e+06 | 150 | 134
CD71-binding FN3 domain of SEQ ID NO: 139 (designed binder) MSLPAPKNLVVSRVTEDSARLSWTAPDAAFDSFEIGYFENLYLGEAIVLTVPGSERSYDLTGLKPGTEYWVQIGGVKGGAYSTPLSAIFTT | – | – | – | – | 4.49e+06 | 3.7e+06 | 496 | 409
CD71-binding FN3 domain of SEQ ID NO: 124 (designed binder) MSLPAPKNLVVSRVIEDSARLSWTAPDAAFDSFEIGYFENLYLGEAIVLTVPGSERSYDLTGLKPGTEYWVQIGGVKGGNWSAPLSAIFTT | – | – | – | – | 4.89e+06 | 5.01e+06 | 42 | 43
CD71-binding FN3 domain of SEQ ID NO: 141 (designed binder) MSLPAPKNLVVSRVTEDSARLSWTAPDAAFDSFEIGYFENLYLGEAIVLTVPGSERSYDLTGLKPGTEYWVQIGGVKGGNWSAPLSAYFTT | – | – | – | – | 5.4e+06 | 4.22e+06 | 245 | 192
CD71-binding FN3 domain of SEQ ID NO: 126 (designed binder) MSLPAPKNLVVSRVTEDSARLSWTAPDAVFDSFEIAYQELSLWGEAIVLTVPGSERSYDLTGLKPGTEYYVHIGGVKGGIWSSPLSAYFTT | – | – | – | – | 5.27e+06 | 3.13e+06 | 382 | 227
CD71-binding FN3 domain of SEQ ID NO: 146 (designed binder) MSLPAPKNLVVSRVTEDSARLSWTAPDAAFDSFDIGYFENTYEGEAIVLTVPGSERSYDLTGLKPGTEYVVWIGGVKGGSYSSPLSAIFTT | – | – | – | – | 4.96e+06 | 4.34e+06 | 128 | 112
CD71-binding FN3 domain of SEQ ID NO: 131 (designed binder) MSLPAPKNLVVSRVTEDSARLSWTAPDAAFDSFEIAYFENDWAGEAIVLTVPGSERSYDLTGLKPGTEYVVFIGGVKGGDFSPPLSAIFTT | – | – | – | – | 4.81e+06 | 3.35e+06 | 145 | 101
CD71-binding FN3 domain of SEQ ID NO: 132 (designed binder) MSLPAPKNLVVSRVTEDSARLSWTAPDAAFDSFEIGYFENLYLGEAIVLTVPGSERSYDLTGLKPGTEYWVQIGGVKGVNWSAPLSAIFTT | – | – | – | – | 5.15e+06 | 3.63e+06 | 201 | 142
CD71-binding FN3 domain of SEQ ID NO: 130 (designed binder) MSLPAPKNLVVSRVTEDSARLSWTAPDAAFDSFEIAYFERTWFGEAIVLTVPGSERSYDLTGLKPGTEYWVQIGGVKGGDWSAPLSAIFTT | – | – | – | – | 5e+06 | 3.76e+06 | 196 | 147
CD71-binding FN3 domain of SEQ ID NO: 148 (designed binder) MSLPAPKNLVVSRVTEDSARLSWTAPDAAFDSFEIVYQENSAYGEAIVLTVPGSERSYDLTGLKPGTEYWVQIGGVKGGEWSAPLSAIFTT | – | – | – | – | 4.72e+06 | 2.45e+06 | 408 | 212
CD71-binding FN3 domain of SEQ ID NO: 489 (designed binder) MLAPKNLVVSRVTEDSARLSWTAPDAAFDSFFIGYLEPQPPGEAISLLVPGSERSYDLTGLKPGTEYNVTIQGVKGGFPSSPLLAGFTT | 340 | 235 | 4.06e+06 | 2.81e+06 | – | – | – | –
CD71-binding FN3 domain of SEQ ID NO: 119 (designed binder) MSLPAPKNLVVSRVTEDSARLSWTAPDAAFDSFFIGYLEPQPPGEAIELYVPGSERSYDLTGLKPGTEYNVTIQGVKGGFPSDPLVAFFTT | – | – | – | – | 6.29e+06 | 7.04e+06 | 394 | 441
CD71-binding FN3 domain of SEQ ID NO: 532 (designed binder) MLPAPKNLVVSRVTEDSARLSWTAPDAAFDSFDINYDELSGEGEAIALFVPGSERSYDLTGLKPGTEYWVSIGGVKGGRFSEPLYARFTT | 197 | 62 | 4.59e+06 | 1.45e+06 | – | – | – | –
CD71-binding FN3 domain of SEQ ID NO: 519 (designed binder) MLPAPKNLVVSRVTEDSARLSWTAPDAAFDSFPIAYPEHLPPGEAIVLTVPGSERSYDLTGLKPGTEYPVNIRGVKGGFVSFPLSAIFTT | 253 | 156 | 5.24e+06 | 3.24e+06 | – | – | – | –
CD71-binding FN3 domain of SEQ ID NO: 510 (designed binder) MLPAPKNLVVSRVTEDSARLSWTAPDAAFDSFFIAYGESPESGEAIVLTVPGSERSYDLTGLKPGTEYLVWIAGVKGGYYSDPLSAIFTT | 404 | 263 | 5.21e+06 | 3.39e+06 | – | – | – | –
